Here are results for one substance from US20220195014A1.

The target of this test is recombinant human NPR3 extracellular domain portion (amino acids Gly27-Ser482) fused to the Fc portion of mouse IgG2a (human; mouse) (UniProt P17342). As to the kind of experiment: blocking ELISA, plate-coated hNPR3-mFc, competitor biotin-hANP, 1 µg/mL control antibody. (In general: An ELISA detects its analyte on a solid surface through an enzyme-linked reagent.)
Sequence of UniProt P17342 (P17342 27-482 limits assumed): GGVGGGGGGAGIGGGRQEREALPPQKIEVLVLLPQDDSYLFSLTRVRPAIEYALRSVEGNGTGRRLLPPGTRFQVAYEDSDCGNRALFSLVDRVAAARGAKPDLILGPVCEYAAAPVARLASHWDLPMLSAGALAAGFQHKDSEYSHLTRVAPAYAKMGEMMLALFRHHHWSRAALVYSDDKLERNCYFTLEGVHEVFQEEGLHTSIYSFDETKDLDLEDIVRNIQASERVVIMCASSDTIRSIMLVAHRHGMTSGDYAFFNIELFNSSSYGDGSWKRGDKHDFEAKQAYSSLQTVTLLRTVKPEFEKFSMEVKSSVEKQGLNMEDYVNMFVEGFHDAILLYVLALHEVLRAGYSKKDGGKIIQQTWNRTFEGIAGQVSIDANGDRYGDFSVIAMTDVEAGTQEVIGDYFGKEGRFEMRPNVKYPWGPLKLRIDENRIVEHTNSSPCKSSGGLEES

For the substance “non-binding human IgG1 isotype control antibody (blocking ELISA)”, the percent blockade amounted to 32%.
